T1: mouse HRt (hairless protein aa 490-1182) (Mus musculus, UniProt Q61645)
T1 construct: HR cDNA corresponding to the C-terminal half of HR protein (aa residues 490 to 1182, hereinafter HRt); expressed in transfected cells; host or cells: Saccharomyces cerevisiae PJ69-2A transformed with BD-HRt plasmid, mated with Y187 carrying the human brain cDNA library in pACT2
T1 sequence (Q61645 490-1182): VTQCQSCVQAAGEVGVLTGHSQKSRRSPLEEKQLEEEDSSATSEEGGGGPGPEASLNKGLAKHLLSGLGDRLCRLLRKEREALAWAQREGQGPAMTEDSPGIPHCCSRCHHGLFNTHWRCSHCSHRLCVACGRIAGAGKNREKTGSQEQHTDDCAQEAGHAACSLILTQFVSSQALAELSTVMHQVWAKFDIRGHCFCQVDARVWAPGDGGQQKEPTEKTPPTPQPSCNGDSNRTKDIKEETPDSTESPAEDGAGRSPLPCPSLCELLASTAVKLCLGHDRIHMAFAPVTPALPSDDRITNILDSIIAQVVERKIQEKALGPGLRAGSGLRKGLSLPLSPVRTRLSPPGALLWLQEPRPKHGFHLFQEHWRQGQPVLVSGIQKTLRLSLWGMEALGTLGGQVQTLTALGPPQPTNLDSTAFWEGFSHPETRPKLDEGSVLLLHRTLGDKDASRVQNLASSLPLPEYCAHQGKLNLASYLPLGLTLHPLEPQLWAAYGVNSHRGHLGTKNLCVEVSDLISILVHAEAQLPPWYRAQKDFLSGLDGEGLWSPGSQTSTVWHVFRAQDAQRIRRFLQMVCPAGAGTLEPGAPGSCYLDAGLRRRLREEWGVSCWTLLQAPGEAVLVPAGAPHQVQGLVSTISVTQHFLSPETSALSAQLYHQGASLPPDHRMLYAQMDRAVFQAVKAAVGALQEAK

B1: Human sequence from clone RP4-753, chromosome 21q: human HRt interacting partner, GenBank AL031676, SEQ ID NO:12/13 (protein, listed as Homo sapiens)
chain: TRSSFRSEATPSEPVLVSVHLSVLPARVQPRGMDRARVAVAAGSLAPPVLPPPIQRLRGCSMFYVFLNEDPSDGSSPIPDSGSPSGPRAAPEHPARLPLT
B2: Human monocyte antigen CD14: human HRt interacting partner, GenBank M86511, SEQ ID NO:14/15 (protein, listed as Homo sapiens)
chain: KRINLISQTKRPDRNMSLSRACPCWNGLLTTIKNLELLLEIVTDKSQEGSQFVKGFGGIGGILRYRVDFQGMEYQGGDDEFFDLDDY
B3: Human vesicle-associated membrane protein 2: human HRt interacting partner, GenBank BC002737, SEQ ID NO:22/23 (protein, listed as Homo sapiens)
chain: QGEGKGDGTGSYREGQGPRQQGGHQEAAAAATVCVASLPPPQHPRQLGLAPLPSLHCTLSLKINFQPCLLSTWWVVGMQFGICSTPST
B4: Human small intestine cDNA to mRNA clone HSI10987: human HRt interacting partner, GenBank AK026339, SEQ ID NO:24/25 (protein, listed as Homo sapiens)
chain: CPGRSQGPHCWDAGCSGAPQAQVPSVFSFDFAAVLVLLLYPQELTWTQILGPPWSASSSAFGSGKNSSRTFYSQRQSLSFLCPICISSRRDPP
B5: Human aldolase A: human HRt interacting partner, GenBank M11560, SEQ ID NO:26/27 (protein, listed as Homo sapiens)
chain: VSKAVEHINKTIAPALVSKKLNVTEQEKIDKLMIEMDGTENKSKFGANAILGVSLAVCKAGAVEKGVPLYRHIADLAGNSEVILPVPAFNVINGGFSCCNKLAMHEVHDPPSRCSKLQGSLRIGTE

This data set concerns the target T1, mouse HRt (hairless protein aa 490-1182). Description: Yeast two-hybrid screen of BD-HRt against human brain cDNA library in AD vector, lacZ coloration on QDO-Xgal plates. Particulars: BD-HRt(mouse) x human brain cDNA library in AD-vector. Type of data set: cell-based. The source says: The present example provides for Hairless Protein (HR) interacting partners (HR-IP) using the yeast two-hybrid technology. […] Yeast cells expressing BD-HRt are mated with yeast cells pretransformed with human brain cDNA library in the activation domain (AD) vector.
Cloning of HRt into GAL4 binding domain (BD) yeast two-hybrid (Y2H) vector: The HRt insert from pET32a-HRt is excised as an Eco RI-Xho I fragment (there is a unique Xho I site just adjacent to HRt insert) and inserted at the Eco RI-Sal I sites of Y2H-BD vector pGBKT7 (Catalog No. K1612-B; a component of Matchmaker two-hybrid System 3 (Catalog No. K1612-1) BD Biosciences Clontech, Palo Alto, Calif.) to obtain pGBKT7-HRt in which HRt is fused in-frame to GAL 4 DNA BD (this plasmid is also designated BD-HRt).
Pretransformed human brain […] cDNA Library Screen for HRt interaction partners: Pretransformed human brain […] high-complexity GAL4 cDNA library that has already been amplified and introduced into yeast strain Y187 (MATα) is used to screen for HRt interacting proteins. […] The library host strain Y187 provides a third reporter gene (lacZ) for optional quantification of signal strength. The protocol as described in Clontech user manual (PT3183-1) is used. Briefly, the library is mixed with PJ69-2A strain that has been transformed with the BD-HRt plasmid in YPD medium containing adenine hemisulfate (0.004%) and kanamycin (0.005%) and incubated for 20-24 h at 30° C. The next day, the mating mixture is plated on Leu, Trp, His TDO that selects for two-hybrid interactions, and then the positive clones are screened for growth on Leu, Trp, His, Ade QDO, which is a more stringent condition for interaction. Colonies that grew well on QDO are also screened for lacZ expression by streaking on QDO-Xgal plates. Based on a visual assessment of colonies for the intensity of blue color, the clones are classified into high (H), medium (M), low (L) or very low (VL) categories.
The positive clones are expected to contain an AD-IP (interacting partner) that interacts with BD-HRt. To characterize IP, the sequence of IP is determined and matched to the human genome database. For this purpose, total DNA is isolated from the positive clones and PCR amplified with […] AD LD (long distance)-insert screening amplimers (Catalog No.9103-1; BD Biosciences Clontech, PaloAlto, Calif.). Reaction is conducted in 50 μl volume for 35 cycles using the conditions recommended with the Advantage2 PCR kit (Catalog No. K1910-1; BD Biosciences Clontech, PaloAlto, Calif.).
As for “HUMFGF1A Human fibroblast growth factor (FGF) receptor-1 mRNA: interacting partner nucleic acid, homology in a 3'-untranslated region, GenBank M34641, SEQ ID NO:92”, the “XGAL (rate and intensity of coloration of colonies on Xgal)” value (from here on “XGAL”) is recorded as “VL (VL = Very Low blue in 10 days)”.

For “Human C11 protein: human HRt interacting partner, GenBank X81625, SEQ ID NO:20/21”, the “XGAL” value was “M (M = Medium blue in 3-5 days)”.

As for “Human Sphingolipid activator protein: human HRt interacting partner, GenBank M60255, SEQ ID NO:16/17 (PLPPPCLLPLPRPPLLPRLGRVVPLHPLQTSPVTGDCSRPRPRWMRWWTS; listed as Homo sapiens)”, the “XGAL” value is “M (M = Medium blue in 3-5 days)”.

On to “Human Thy-1 glycoprotein: human HRt interacting partner, GenBank AF261093, SEQ ID NO:66/67”, for which the “XGAL” value was “L (L = Low blue in 5-7 days)”.

“Human ankyrin repeat containing protein ASB-2: human HRt interacting partner, GenBank AF159164, SEQ ID NO:38/39”: the “XGAL” value is “M (M = Medium blue in 3-5 days)”.

Turning to “Human cDNA FLJ20456 fis clone KAT05827: human HRt interacting partner, GenBank AK000463, SEQ ID NO:74/75”, the “XGAL” value is reported as “L/VL”.

Consider “Human cDNA: FLJ23187 fis, clone: LNG11989: human HRt interacting partner, GenBank AK026840, SEQ ID NO:78/79”, for which the “XGAL” value is given as “L (L = Low blue in 5-7 days)”.

As to “Human genomic region containing hypervariable mini satellites Chromosome 10[10q26.3]: human HRt interacting partner, GenBank AL096810, SEQ ID NO:64/65 (NMKNRMMWRVMTLEKTRVNIIQTHLLCLLLIQMK; listed as Homo sapiens)”, the “XGAL” value is “L (L = Low blue in 5-7 days)”.

In the case of “Human hypothetical protein: human HRt interacting partner, GenBank BC006358, SEQ ID NO:34/35”, the “XGAL” value is recorded as “M (M = Medium blue in 3-5 days)”.

Consider “Human mRNA for C11ORF25 gene: interacting partner nucleic acid, homology in a 3'-untranslated region, GenBank AJ300461, SEQ ID NO:94 (DNA CTATTCGATGATGAAGATACCCCACCAAACCCA; listed as DNA, chemistry not fully specified; the letters are possibly those of the target site)”, for which the “XGAL” value is reported as “VL (VL = Very Low blue in 10 days)”.

As to “Human pre-B cell colony enhancing factor (PBEF): human HRt interacting partner, GenBank U02020, SEQ ID NO:55”, the “XGAL” value is on record as “L (L = Low blue in 5-7 days)”.

Take “Human synuclein-beta: human HRt interacting partner, GenBank BC002902, SEQ ID NO:18/19 (FCPTPTATPCRNSPGVTSGGPRPCWARLMEVPQERTRTAWCSTPRLPSRSRSSASVMM; listed as Homo sapiens)”: the “XGAL” value was “M (M = Medium blue in 3-5 days)”.

With “Human tyrosine phosphatase type 1VA, member 2: human HRt interacting partner, GenBank U14603, SEQ ID NO:51/52”, the “XGAL” value is on record as “L (L = Low blue in 5-7 days)”.

With “Human ubiquitin: human HRt interacting partner, GenBank AR075562, SEQ ID NO:70/71 (EKFAPKKQGDGGKDLPTEAKKRAAEFCRGALC; listed as Homo sapiens)”, the “XGAL” value is “L/VL”.

“Human ubiquitous receptor UR: human HRt interacting partner, GenBank E11456, SEQ ID NO:1/2”: the “XGAL” value is reported as “H/M”.

B1: the “XGAL” value was “H (H = Intense blue within 2-3 days)”.

With B2, the “XGAL” value was “H (H = Intense blue within 2-3 days)”.

On to B3, for which the “XGAL” value is recorded as “M (M = Medium blue in 3-5 days)”.

Consider B4, for which the “XGAL” value is recorded as “M (M = Medium blue in 3-5 days)”.

For B5, the “XGAL” value is recorded as “M (M = Medium blue in 3-5 days)”.

Source of the values: patent US20040086945A1, “Hairless protein-interacting partner complexes and methods thereto” (The Procter & Gamble Company, priority 2002, published 2004).
